Reference: US20060121042A1 (AstraZeneca / MedImmune, published 2006)

T1: mEphA7 (mouse, UniProt Q61772)
T1 construct: part of an Fc fusion; also called rmuEphA7-Fc
T1 sequence (receptor-Fc fusion, looked up): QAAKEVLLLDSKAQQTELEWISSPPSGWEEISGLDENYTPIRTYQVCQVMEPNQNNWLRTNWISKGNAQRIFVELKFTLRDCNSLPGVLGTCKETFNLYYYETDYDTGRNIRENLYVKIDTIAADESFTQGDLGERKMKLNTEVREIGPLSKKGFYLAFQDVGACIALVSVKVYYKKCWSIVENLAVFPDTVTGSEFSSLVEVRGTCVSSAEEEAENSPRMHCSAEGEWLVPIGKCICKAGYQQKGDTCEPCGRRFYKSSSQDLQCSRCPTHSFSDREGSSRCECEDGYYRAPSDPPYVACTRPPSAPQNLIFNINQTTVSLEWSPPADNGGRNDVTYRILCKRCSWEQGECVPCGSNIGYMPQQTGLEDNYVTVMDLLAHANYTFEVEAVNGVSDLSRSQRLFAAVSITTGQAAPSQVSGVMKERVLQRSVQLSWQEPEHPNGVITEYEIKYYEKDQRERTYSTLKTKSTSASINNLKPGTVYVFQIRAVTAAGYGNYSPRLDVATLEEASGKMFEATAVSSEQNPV

T2: r murine EphA7 (mouse, UniProt Q61772)
T2 construct: recombinant Fc fusion (R&D Systems); also called rmuEphA7-Fc; mEphA7
T2 sequence (receptor-Fc fusion, looked up): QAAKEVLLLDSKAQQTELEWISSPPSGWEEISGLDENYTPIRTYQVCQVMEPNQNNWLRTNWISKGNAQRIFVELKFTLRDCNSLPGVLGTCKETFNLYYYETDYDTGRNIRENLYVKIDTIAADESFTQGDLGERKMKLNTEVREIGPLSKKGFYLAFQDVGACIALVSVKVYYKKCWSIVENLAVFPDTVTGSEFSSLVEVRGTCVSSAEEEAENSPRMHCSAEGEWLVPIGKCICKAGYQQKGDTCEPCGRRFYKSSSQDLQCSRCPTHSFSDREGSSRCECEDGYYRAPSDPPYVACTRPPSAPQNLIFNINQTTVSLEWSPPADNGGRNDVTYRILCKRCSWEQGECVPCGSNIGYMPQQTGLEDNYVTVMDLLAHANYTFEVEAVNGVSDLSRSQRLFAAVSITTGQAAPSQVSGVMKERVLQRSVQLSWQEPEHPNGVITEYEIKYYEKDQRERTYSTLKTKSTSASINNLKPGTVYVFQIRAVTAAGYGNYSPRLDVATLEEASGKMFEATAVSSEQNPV

T3: rmEph B2 (mouse, UniProt P54763)
T3 sequence (receptor, looked up): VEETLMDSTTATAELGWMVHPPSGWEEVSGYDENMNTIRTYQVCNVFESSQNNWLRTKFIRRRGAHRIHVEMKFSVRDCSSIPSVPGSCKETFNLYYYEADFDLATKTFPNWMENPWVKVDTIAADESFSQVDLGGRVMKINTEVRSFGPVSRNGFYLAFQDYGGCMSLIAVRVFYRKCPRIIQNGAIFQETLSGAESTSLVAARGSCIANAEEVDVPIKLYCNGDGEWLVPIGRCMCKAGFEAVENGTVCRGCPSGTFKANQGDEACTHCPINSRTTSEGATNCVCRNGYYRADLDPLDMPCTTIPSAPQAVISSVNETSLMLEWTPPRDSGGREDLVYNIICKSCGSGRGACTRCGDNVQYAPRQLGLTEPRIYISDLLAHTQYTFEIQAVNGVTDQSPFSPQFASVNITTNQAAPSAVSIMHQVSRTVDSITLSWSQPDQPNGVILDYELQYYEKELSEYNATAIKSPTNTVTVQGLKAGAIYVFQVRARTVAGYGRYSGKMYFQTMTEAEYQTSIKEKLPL

T4: rmEph B3 (mouse, UniProt P54754)
T4 sequence (receptor, looked up): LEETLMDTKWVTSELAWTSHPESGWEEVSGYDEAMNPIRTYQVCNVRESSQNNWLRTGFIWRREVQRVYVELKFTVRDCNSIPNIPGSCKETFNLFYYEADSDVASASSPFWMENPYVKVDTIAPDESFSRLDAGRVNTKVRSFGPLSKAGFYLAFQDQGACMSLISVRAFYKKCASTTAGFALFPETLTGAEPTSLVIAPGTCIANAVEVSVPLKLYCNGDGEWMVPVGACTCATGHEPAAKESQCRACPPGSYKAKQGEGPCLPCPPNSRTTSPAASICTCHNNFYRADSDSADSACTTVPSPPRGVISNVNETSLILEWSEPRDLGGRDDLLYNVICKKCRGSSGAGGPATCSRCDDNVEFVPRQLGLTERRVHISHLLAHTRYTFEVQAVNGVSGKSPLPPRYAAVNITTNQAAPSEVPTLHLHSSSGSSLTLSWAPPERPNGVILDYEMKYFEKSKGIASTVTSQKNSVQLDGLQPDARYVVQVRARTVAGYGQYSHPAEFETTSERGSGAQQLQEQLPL

T5: rrEphB1 (rat, UniProt P09759)
T5 sequence (receptor, looked up): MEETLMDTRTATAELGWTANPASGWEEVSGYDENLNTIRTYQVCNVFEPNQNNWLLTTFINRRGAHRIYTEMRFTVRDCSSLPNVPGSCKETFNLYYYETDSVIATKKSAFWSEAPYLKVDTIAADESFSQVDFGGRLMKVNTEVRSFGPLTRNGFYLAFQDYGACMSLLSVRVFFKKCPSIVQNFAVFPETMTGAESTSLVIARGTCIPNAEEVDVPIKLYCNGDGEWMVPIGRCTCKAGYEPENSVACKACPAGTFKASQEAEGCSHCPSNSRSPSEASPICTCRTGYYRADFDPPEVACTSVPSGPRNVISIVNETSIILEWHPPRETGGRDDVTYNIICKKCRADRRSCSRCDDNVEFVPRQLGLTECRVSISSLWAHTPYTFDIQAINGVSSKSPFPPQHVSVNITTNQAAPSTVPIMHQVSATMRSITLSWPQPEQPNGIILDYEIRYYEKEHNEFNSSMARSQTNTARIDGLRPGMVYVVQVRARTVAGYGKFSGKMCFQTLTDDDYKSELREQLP

T6: mEph A7 (mouse, UniProt Q61772)
T6 sequence (receptor, looked up): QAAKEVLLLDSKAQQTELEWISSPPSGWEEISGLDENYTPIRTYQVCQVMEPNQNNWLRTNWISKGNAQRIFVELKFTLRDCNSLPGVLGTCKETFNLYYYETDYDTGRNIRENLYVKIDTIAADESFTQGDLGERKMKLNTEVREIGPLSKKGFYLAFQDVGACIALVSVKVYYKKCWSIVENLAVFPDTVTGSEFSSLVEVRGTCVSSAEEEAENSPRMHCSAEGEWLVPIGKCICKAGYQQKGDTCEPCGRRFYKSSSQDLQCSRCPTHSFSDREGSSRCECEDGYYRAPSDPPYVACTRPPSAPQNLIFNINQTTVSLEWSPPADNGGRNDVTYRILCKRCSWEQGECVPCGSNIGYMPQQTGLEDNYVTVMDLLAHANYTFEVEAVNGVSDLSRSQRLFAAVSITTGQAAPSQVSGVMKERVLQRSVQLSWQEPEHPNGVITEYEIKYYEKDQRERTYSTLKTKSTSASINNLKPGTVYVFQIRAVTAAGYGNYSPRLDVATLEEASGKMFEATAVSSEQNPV

T7: mEph A3 (mouse, UniProt P29319)
T7 sequence (receptor, looked up): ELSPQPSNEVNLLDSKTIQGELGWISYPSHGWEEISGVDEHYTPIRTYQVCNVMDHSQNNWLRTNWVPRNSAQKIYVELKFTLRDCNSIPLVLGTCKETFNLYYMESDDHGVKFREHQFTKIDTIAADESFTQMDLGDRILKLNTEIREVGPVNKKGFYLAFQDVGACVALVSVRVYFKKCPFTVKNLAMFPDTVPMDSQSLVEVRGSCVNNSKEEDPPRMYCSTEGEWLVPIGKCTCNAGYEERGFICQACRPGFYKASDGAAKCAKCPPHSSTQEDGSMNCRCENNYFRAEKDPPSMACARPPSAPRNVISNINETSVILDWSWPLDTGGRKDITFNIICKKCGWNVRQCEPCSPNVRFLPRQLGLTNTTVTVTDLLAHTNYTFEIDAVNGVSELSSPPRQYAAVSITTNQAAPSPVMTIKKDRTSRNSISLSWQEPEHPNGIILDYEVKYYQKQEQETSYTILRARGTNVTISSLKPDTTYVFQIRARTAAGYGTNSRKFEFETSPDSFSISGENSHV


How the values were obtained:
mEphA7 = target: T1, mEphA7; assay: ELISA, receptor coated on the plate, purified IgG, anti-human kappa-HRP
Experimental: (§1) Secondary screening of IgG constructs of affinity optimized combinatorial variants with additional EphA receptors: With purified IgG constructs of the nine combinatorial variants, additional secondary screening assays were performed using the Activity ELISA (see above) and recombinant EphA receptor proteins. More precisely, Nunc Maxisorp plates were coated with the following rEphA proteins: rhuEphAl-Fc; 0.5 μg/well, rmuEphA2-Fc; 0.5 μg/well, rmuEphA3-Fc: 0.1 μg/well, rmuEphA4-Fc; 0.1 μg/well, rratEphA5-Fc; 0.5 μg/well, rmuEphA6-Fc; 0.5 μg/well, rmuEphA7-Fc; 0.1 μg/well, rEphA8; 0.2 μg/well (all R&D Systems), rhuEphA2-Fc; 0.5 μg/well, and rhuEphA4-His; 0.1 μg/well (both produced at MedImmune, Inc.). Plates were blocked with 3% BSA+0.1% Tween20 for 2 h. […] Incubation with a goat anti-human kappa horseradish peroxydase (HRP) conjugate then followed. HRP activity was detected with TMB substrate and the reaction quenched with 0.2 M H₂SO₄. Plates were read at 450 nm. Data was analyzed by normalizing Fab concentrations to the corresponding activity data (see FIGS. 12A-12J and 14).

mEphA4 = target: T8, mEphA4 (mouse, UniProt Q03137); assay: as above
T8 construct: part of an Fc fusion; also called rmuEphA4-Fc
T8 sequence (Q03137 20-547 limits assumed): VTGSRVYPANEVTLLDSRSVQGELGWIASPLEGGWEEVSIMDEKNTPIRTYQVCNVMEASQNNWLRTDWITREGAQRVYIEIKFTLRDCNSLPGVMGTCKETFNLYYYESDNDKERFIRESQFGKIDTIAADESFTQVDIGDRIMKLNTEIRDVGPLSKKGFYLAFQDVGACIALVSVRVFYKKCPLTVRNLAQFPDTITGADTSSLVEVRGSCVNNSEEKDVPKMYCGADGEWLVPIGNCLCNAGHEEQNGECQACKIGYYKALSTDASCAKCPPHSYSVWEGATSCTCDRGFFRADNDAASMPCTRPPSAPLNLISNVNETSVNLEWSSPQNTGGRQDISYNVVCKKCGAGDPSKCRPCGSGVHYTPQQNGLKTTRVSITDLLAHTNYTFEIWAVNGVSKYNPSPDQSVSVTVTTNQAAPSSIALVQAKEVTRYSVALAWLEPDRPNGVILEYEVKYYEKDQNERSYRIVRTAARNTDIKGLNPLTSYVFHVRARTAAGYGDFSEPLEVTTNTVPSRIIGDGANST
Experimental: as §1

[1] = target: T9, Human EphA4-Fc fusion protein (human, UniProt P54764 20-547); assay: BIAcore, IgG immobilized on the sensor chip, EphA4-Fc as analyte; koff and KD printed as ***, comment: off-rate below LOD
T9 construct: not shown: Fc portion of a human IgG1
T9 sequence (P54764 20-547): as the sequence (Q03137 20-547 limits assumed) above, with A59P, S121N, G124V, Q250R, N251S, S270T, R378K, S406N counted along it
Experimental: FIG. 15A-15B. […] Binding affinities were measured using the BIAcore assay. […] Variant kinetic measurements for human EphA4 and were obtained using BIAcore with immobilized variant antibodies and human EphA4-Fc and EphA4-His as analytes.

r murine EphA7 = target: T2, r murine EphA7; assay: activity ELISA, IgG on coated antigen
Experimental: as §1

r murine EphA4 = target: T10, r murine EphA4 (mouse, UniProt Q03137); assay: activity ELISA, IgG on coated antigen
T10 construct: recombinant Fc fusion (R&D Systems); also called rmuEphA4-Fc; mEphA4
T10 sequence (Q03137 20-547 limits assumed): as the sequence (Q03137 20-547 limits assumed) above
Experimental: as §1

rmEph B2 = target: T3, rmEph B2; assay: ELISA
rmEph B3 = target: T4, rmEph B3; assay: ELISA
rrEphB1 = target: T5, rrEphB1; assay: ELISA
mEph A4 = mEph A4 (mouse, UniProt Q03137); assay: ELISA
mEph A4, sequence (Q03137 20-547 limits assumed): as above

[2] = target: T11, human EphA4 (construct not given) (human, UniProt P54764 20-547, limits assumed); assay: ELISA
T11 construct: also called EphA4 receptor
T11 sequence (P54764 20-547 limits assumed): as the sequence (Q03137 20-547 limits assumed) above, with A59P, S121N, G124V, Q250R, N251S, S270T, R378K, S406N counted along it

mEph A7 = target: T6, mEph A7; assay: ELISA
mEph A3 = target: T7, mEph A3; assay: ELISA

binding result (mEphA7) | binding result (mEphA4) | kon [1] | binding result (r murine EphA7) | binding result (r murine EphA4) | ELISA O.D. value (rmEph B2) | ELISA O.D. value (rmEph B3) | ELISA O.D. value (rrEphB1) | ELISA O.D. value (mEph A4) | ELISA O.D. value [2] | ELISA O.D. value (mEph A7) | ELISA O.D. value (mEph A3) | Binder
binds | binds | 464000 M⁻¹ s⁻¹ | binds | binds |  |  |  |  |  |  |  | 3C6 IgG1 (affinity optimized combinatorial variant of mAb GEA44 in human IgG1 format) (antibody, V domains shown) VH: QVQLLQSGAEVKKPGASVKVPCKASGYTFTSRAMSWVRQAPGQGLEWMGWINTNTGNPTYAQGFTGRFVFSLDTSVSTAYLQISSLKAEDTAVYYCARVRLTVYGDGMDVWGQGTLVTVSS VL: EIVLTQSPATLSVSPGERATLSCRASQSVSSNPPWYQQKPGQAPRLLIYGASTRATGIPDRFSASGSGTDFTLTISRVEPEDFAVYYCQQYGSSWTFGQGTKVEIK
 |  |  |  |  | 0.264 | 0.377 | 0.823 | 0.253 | 0.267 | 0.132 | 0.116 | GEA10-C12 (antibody, V domains shown) VH: QVQLQESGPGLVKPSGTLSLTCAVSGGSISSSNWWSWVRQPPGKGLEWIGEIYHSGSTNYNPSLKSRVTISVDKSKNQFSLKLSSVTAADTAVYYCARGGIAAAGYWGLGYNWFDPWGQGTLVTVSS VL: QSVLTQPPSVSGAPGQRVTISCTGSSSNIGAGYDVHWYQQLPGTAPKLLIYGNSNRPSGVPDRFSGSKSGTSASLAITGLQAEDEADYYCQSYDNSLSGSVVFGGGTKLTVL
